In publication PMC8391104, “Molecular mechanism of Mad1 kinetochore targeting by phosphorylated Bub1” (EMBO Reports, 2021):

What was measured:
kinetochore = details: cited from earlier work; for kinetochore targeting of F629A / R630A mutants, in words: ref Ji et al, 2017b
Text: Formation of the Bub1‐Mad1 complex at kinetochores is dependent on phosphorylation of Bub1, a targeting mechanism conserved from yeast to humans (Heinrich et al, [2014]; London & Biggins, [2014a]; Silió et al, [2015]). In S. cerevisiae, phosphorylation of Bub1 at Thr453 and Thr455 by Mps1 promotes an interaction with Mad1^CTD, with pThr455 alone being sufficient for this interaction (London & Biggins, [2014a]; Ji et al, [2017b]). […] Phe629 is a buried hydrophobic residue which contacts Phe629 of the opposite subunit and therefore contributes to the hydrophobic dimerization interface of Mad1^CTD. Phe629 also contributes to the hydrophobic interface of the Bub1^CD1‐Mad1^CTD complex by stacking with Bub1 Phe475 (Fig 3B). […] However, we suspect this could be linked to disruption of the Mad1 conformation sinc ...

[1] = Aggregation of Mad1^CTD mutants; type: physicochemical; details: purified Mad1^CTD mutant
Text: The coding region of Mad1^597–719 was cloned by USER® (NEB) into a modified pRSFDuet‐1 vector (71341‐3, Sigma‐Aldrich) with an N‐terminal double Strep His6‐tag, followed by a tobacco etch virus (TEV) protease cleavage site (Demple & Linn, [1982]; Bitinaite et al, [1992]). Mad1 mutants were generated using the QuikChange™ Lightning Site‐Directed Mutagenesis Kit (Agilent), developed by Stratagene Inc. (La Jolla, CA) (Nøhr & Kristiansen, [2003]). Mad1 constructs were transformed into Rosetta™ 2 (DE3) Singles™ Competent Cells (71400, Novagen) for expression. Expression was induced with 0.5 mM IPTG and grown overnight at 18°C. Cells were lysed in 25 mM HEPES pH 8.1, 250 mM NaCl, 2 mM DTT, 5% glycerol, 2 mM EDTA supplemented with lysozyme, and Complete™ EDTA‐free protease inhibitors (Roche). Proteins were purified over a Strep‐Tactin Superflow Plus column (QIAGEN) and cleaved with TEV protease overnight at 4°C. […]
Size exclusion chromatography coupled with multi‐angle static light scattering (SEC‐MALS) was performed using an Agilent 1200 series LC system with an online Dawn Helios ii system (Wyatt) equipped with a QELS+ module (Wyatt) and an Optilab rEX differential refractive index detector (Wyatt). […] The molecular masses were analysed with ASTRA 7.3.0.11 (Wyatt). […]

Row | Molecule | Mad1 kinetochore recruitment by Bub1 S459A, in words (kinetochore; ref Zhang et al, 2017) | aggregation, in words [1] | kinetochore targeting of F629A / R630A mutants, in words (kinetochore)
1 | S459A: Bub1 S459A mutation (protein, UniProt O43683 1-1085, looked up, variant S459A) Mitotic checkpoint …: MDTPENVLQMLEAHMQSYKGNDPLGEWERYIQWVEENFPENKEYLITLLEHLMKEFLDKKKYHNDPRFISYCLKFAEYNSDLHQFFEFLYNHGIGTLSSPLYIAWAGHLEAQGELQHASAVLQRGIQNQAEPREFLQQQYRLFQTRLTETHLPAQARTSEPLHNVQVLNQMITSKSNPGNNMACISKNQGSELSGVISSACDKESNMERRVITISKSEYSVHSSLASKVDVEQVVMYCKEKLIRGESEFSFEELRAQKYNQRRKHEQWVNEDRHYMKRKEANAFEEQLLKQKMDELHKKLHQVVETSHEDLPASQERSEVNPARMGPSVGSQQELRAPCLPVTYQQTPVNMEKNPREAPPVVPPLANAISAALVSPATSQSIAPPVPLKAQTVTDSMFAVASKDAGCVNKSTHEFKPQSGAEIKEGCETHKVANTSSFHTTPNTSLGMVQATPSKVQPAPTVHTKEALGFIMNMFQAPTLPDISDDKDEWQSLDQNEDAFEAQFQKNVRSSGAWGVNKIISSLSSAFHVFEDGNKENYGLPQPKNKPTGARTFGERSVSRLPSKPKEEVPHAEEFLDDSTVWGIRCNKTLAPSPKSPGDFTSAAQLASTPFHKLPVESVHILEDKENVVAKQCTQATLDSCEENMVVPSRDGKFSPIQEKSPKQALSSHMYSASLLRLSQPAAGGVLTCEAELGVEACRLTDTDAAIAEDPPDAIAGLQAEWMQMSSLGTVDAPNFIVGNPWDDKLIFKLLSGLSKPVSSYPNTFEWQCKLPAIKPKTEFQLGSKLVYVHHLLGEGAFAQVYEATQGDLNDAKNKQKFVLKVQKPANPWEFYIGTQLMERLKPSMQHMFMKFYSAHLFQNGSVLVGELYSYGTLLNAINLYKNTPEKVMPQGLVISFAMRMLYMIEQVHDCEIIHGDIKPDNFILGNGFLEQDDEDDLSAGLALIDLGQSIDMKLFPKGTIFTAKCETSGFQCVEMLSNKPWNYQIDYFGVAATVYCMLFGTYMKVKNEGGECKPEGLFRRLPHLDMWNEFFHVMLNIPDCHHLPSLDLLRQKLKKVFQQHYTNKIRALRNRLIVLLLECKRSRK | inactivates Bub1‐mediated Mad1 kinetochore recruitment | – | –
2 | F629A: Mad1 F629A mutant (protein, UniProt Q9Y6D9 1-718, looked up, variant F629A) Mitotic spindle assembly …: MEDLGENTMVLSTLRSLNNFISQRVEGGSGLDISTSAPGSLQMQYQQSMQLEERAEQIRSKSHLIQVEREKMQMELSHKRARVELERAASTSARNYEREVDRNQELLTRIRQLQEREAGAEEKMQEQLERNRQCQQNLDAASKRLREKEDSLAQAGETINALKGRISELQWSVMDQEMRVKRLESEKQELQEQLDLQHKKCQEANQKIQELQASQEARADHEQQIKDLEQKLSLQEQDAAIVKNMKSELVRLPRLERELKQLREESAHLREMRETNGLLQEELEGLQRKLGRQEKMQETLVGLELENERLLAKLQSWERLDQTMGLSIRTPEDLSRFVVELQQRELALKDKNSAVTSSARGLEKARQQLQEELRQVSGQLLEERKKRETHEALARRLQKRVLLLTKERDGMRAILGSYDSELTPAEYSPQLTRRMREAEDMVQKVHSHSAEMEAQLSQALEELGGQKQRADMLEMELKMLKSQSSSAEQSFLFSREEADTLRLKVEELEGERSRLEEEKRMLEAQLERRALQGDYDQSRTKVLHMSLNPTSVARQRLREDHSQLQAECERLRGLLRAMERGGTVPADLEAAAASLPSSKEVAELKKQVESAELKNQRLKEVFQTKIQEARKACYTLTGYQIDITTENQYRLTSLYAEHPGDCLIFKATSPSGSKMQLLETEFSHTVGELIEVHLRRQDSIPAFLSSLTLELFSRQTVA | – | had a propensity to aggregate | defective in kinetochore targeting
3 | R630A: Mad1 R630A mutant (protein, UniProt Q9Y6D9 1-718, looked up, variant R630A) Mitotic spindle assembly …: MEDLGENTMVLSTLRSLNNFISQRVEGGSGLDISTSAPGSLQMQYQQSMQLEERAEQIRSKSHLIQVEREKMQMELSHKRARVELERAASTSARNYEREVDRNQELLTRIRQLQEREAGAEEKMQEQLERNRQCQQNLDAASKRLREKEDSLAQAGETINALKGRISELQWSVMDQEMRVKRLESEKQELQEQLDLQHKKCQEANQKIQELQASQEARADHEQQIKDLEQKLSLQEQDAAIVKNMKSELVRLPRLERELKQLREESAHLREMRETNGLLQEELEGLQRKLGRQEKMQETLVGLELENERLLAKLQSWERLDQTMGLSIRTPEDLSRFVVELQQRELALKDKNSAVTSSARGLEKARQQLQEELRQVSGQLLEERKKRETHEALARRLQKRVLLLTKERDGMRAILGSYDSELTPAEYSPQLTRRMREAEDMVQKVHSHSAEMEAQLSQALEELGGQKQRADMLEMELKMLKSQSSSAEQSFLFSREEADTLRLKVEELEGERSRLEEEKRMLEAQLERRALQGDYDQSRTKVLHMSLNPTSVARQRLREDHSQLQAECERLRGLLRAMERGGTVPADLEAAAASLPSSKEVAELKKQVESAELKNQRLKEVFQTKIQEFAKACYTLTGYQIDITTENQYRLTSLYAEHPGDCLIFKATSPSGSKMQLLETEFSHTVGELIEVHLRRQDSIPAFLSSLTLELFSRQTVA | – | – | defective in kinetochore targeting
